Experimental data taken from patent US20090053241A1.

Columns and labels:
[1] = biological target: h5α (human) (UniProt P16234); assay: ELISA (OD450), panel 'PDGF-AA BINDING TO PDGFRβ/α CHIMERAS'; axis 'CO…ON (nM)', titrated species not stated
[2] = biological target: 1β4α (PDGFRβ/α chimera); assay: as above
[3] = biological target: β1-3 (shorter version of PDGFRβ, D1D2D3); assay: ELISA (OD450), panel 'PDGF-BB BINDING TO hPDGFRβ DELETIONS'; axis 'CO…ON (nM)', titrated species not stated

PDGF-BB (ligand), sequence (P01127 82-190): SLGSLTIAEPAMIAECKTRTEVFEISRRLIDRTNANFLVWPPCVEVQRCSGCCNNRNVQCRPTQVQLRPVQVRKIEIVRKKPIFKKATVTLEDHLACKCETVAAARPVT
h5α (human), sequence (P16234 24-524 limits assumed): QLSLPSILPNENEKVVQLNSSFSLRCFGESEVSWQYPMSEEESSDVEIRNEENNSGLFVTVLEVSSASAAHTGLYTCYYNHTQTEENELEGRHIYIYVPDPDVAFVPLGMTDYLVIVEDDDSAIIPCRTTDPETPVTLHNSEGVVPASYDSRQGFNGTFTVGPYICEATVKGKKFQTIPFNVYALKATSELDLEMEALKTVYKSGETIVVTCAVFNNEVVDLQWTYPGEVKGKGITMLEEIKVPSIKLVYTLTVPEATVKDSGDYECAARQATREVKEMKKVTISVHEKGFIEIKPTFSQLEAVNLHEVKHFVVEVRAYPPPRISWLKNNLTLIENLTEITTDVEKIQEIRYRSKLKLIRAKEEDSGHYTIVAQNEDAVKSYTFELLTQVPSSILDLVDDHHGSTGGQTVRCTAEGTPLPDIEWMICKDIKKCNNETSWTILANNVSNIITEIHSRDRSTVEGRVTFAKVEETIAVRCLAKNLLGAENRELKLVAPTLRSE
1β4α (PDGFRβ/α chimera), sequence (P16234 other isoform, or with tags, fused parts or gaps mutant): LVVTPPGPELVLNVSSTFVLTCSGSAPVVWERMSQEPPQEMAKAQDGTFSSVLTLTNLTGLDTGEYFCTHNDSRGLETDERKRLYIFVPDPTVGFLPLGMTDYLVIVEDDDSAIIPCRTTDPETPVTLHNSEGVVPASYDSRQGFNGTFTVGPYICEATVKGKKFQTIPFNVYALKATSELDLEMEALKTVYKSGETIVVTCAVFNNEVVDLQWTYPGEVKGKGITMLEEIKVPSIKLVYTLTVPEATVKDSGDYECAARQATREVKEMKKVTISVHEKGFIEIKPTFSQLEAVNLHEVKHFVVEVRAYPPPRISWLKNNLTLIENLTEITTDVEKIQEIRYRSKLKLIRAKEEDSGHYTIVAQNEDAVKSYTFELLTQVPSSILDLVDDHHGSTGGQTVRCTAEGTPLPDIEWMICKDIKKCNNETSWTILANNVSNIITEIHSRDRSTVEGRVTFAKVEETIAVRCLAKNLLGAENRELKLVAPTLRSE

## PDGF-AA (ligand)
[1]
  EC50 (read off the curve): 0.02 nM
[2]
  EC50 (read off the curve): 0.05 nM

## PDGF-BB (ligand)
[3]
  EC50 (read off the curve): 0.06 nM
